From publication PMC6477699, “Phylogenetic Analyses and GAGA-Motif Binding Studies of BBR/BPC Proteins Lend to Clues in GAGA-Motif Recognition and a Regulatory Role in Brassinosteroid Signaling”
Where a chain is given by its changes, count along the chain named.

How the values were obtained:
GFP-BPC6 [1] = target: T1, GFP-BPC6 (Arabidopsis thaliana, UniProt Q8L999 1-342); assay: qDPI-ELISA; negative binding probe, used as background; DPI-ELISA/qDPI-ELISA: 3 ug total E. coli protein extract and 2 pmol biotinylated dsDNA per well in buffered solution; salt, pH and temperature not stated (cited protocols); details: protein: recombinant; tags: GFP fusion; label: biotin on sense strand
T1 sequence: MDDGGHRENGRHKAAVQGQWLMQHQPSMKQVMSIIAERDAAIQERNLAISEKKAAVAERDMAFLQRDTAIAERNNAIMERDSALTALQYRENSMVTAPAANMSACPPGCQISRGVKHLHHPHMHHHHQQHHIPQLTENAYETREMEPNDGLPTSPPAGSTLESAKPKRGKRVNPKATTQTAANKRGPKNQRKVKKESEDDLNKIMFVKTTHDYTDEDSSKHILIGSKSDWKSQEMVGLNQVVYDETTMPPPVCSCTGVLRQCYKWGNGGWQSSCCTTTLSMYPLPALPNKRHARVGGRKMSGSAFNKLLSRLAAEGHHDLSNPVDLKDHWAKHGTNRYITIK

BPC1 [2] = target: T2, BPC1 (Arabidopsis thaliana, UniProt Q9SKD0 1-283); assay: DPI-ELISA; comparable to K4; DPI-ELISA/qDPI-ELISA: 3 ug total E. coli protein extract and 2 pmol biotinylated dsDNA per well in buffered solution; salt, pH and temperature not stated (cited protocols); details: protein: recombinant; tags: N-terminal 6xHis (pET32b-GW); label: biotin on sense strand
T2 sequence: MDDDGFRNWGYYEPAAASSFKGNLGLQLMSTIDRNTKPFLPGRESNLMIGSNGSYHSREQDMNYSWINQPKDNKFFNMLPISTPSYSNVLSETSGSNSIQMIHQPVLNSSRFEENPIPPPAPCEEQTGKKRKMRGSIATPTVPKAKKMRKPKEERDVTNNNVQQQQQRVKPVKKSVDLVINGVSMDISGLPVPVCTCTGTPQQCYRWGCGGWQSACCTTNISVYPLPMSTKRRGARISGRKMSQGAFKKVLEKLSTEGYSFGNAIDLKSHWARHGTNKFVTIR

GFP-BPC6 [3] = target: T1, GFP-BPC6; assay: qDPI-ELISA; 2.5-times lower than BKn3; DPI-ELISA/qDPI-ELISA: 3 ug total E. coli protein extract and 2 pmol biotinylated dsDNA per well in buffered solution; salt, pH and temperature not stated (cited protocols); details: protein: recombinant; tags: GFP fusion; label: biotin on sense strand
BPC1-WARH = target: T3, BPC1-WARH (Arabidopsis thaliana, UniProt Q9SKD0 1-270); assay: DPI-ELISA; DPI-ELISA/qDPI-ELISA: 3 ug total E. coli protein extract and 2 pmol biotinylated dsDNA per well in buffered solution; salt, pH and temperature not stated (cited protocols); details: protein: recombinant; tags: N-terminal 6xHis (pET32b-GW); label: 5' or 3' biotin not specified, sense strand biotin
T3 sequence: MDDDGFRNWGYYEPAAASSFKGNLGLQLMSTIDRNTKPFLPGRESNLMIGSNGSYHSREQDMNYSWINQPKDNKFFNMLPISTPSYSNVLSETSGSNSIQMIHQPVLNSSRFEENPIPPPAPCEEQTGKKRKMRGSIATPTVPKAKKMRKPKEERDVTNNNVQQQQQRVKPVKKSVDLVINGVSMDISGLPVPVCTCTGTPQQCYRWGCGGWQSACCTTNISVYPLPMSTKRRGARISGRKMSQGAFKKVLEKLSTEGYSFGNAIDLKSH

BPC1-TIR = target: T4, BPC1-TIR (Arabidopsis thaliana, UniProt Q9SKD0 1-280); assay: DPI-ELISA; about 30% less than wild type; DPI-ELISA/qDPI-ELISA: 3 ug total E. coli protein extract and 2 pmol biotinylated dsDNA per well in buffered solution; salt, pH and temperature not stated (cited protocols); details: protein: recombinant; tags: N-terminal 6xHis (pET32b-GW); label: 5' or 3' biotin not specified, sense strand biotin
T4 sequence: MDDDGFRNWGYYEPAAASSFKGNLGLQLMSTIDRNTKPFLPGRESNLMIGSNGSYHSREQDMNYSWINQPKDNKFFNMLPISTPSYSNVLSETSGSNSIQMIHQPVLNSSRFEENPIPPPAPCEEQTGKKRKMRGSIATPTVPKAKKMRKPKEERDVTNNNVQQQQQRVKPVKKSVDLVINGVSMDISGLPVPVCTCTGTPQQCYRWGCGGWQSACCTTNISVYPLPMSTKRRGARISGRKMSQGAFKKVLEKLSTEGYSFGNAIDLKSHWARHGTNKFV

BPC1 [4] = target: T2, BPC1; assay: DPI-ELISA; DPI-ELISA/qDPI-ELISA: 3 ug total E. coli protein extract and 2 pmol biotinylated dsDNA per well in buffered solution; salt, pH and temperature not stated (cited protocols); details: protein: recombinant; tags: N-terminal 6xHis (pET32b-GW); label: biotin on sense strand
GFP-BPC6 [5] = target: T1, GFP-BPC6; assay: qDPI-ELISA; DPI-ELISA/qDPI-ELISA: 3 ug total E. coli protein extract and 2 pmol biotinylated dsDNA per well in buffered solution; salt, pH and temperature not stated (cited protocols); details: protein: recombinant; tags: GFP fusion; label: biotin on sense strand
GFP-BPC6 [6] = target: T1, GFP-BPC6; assay: qDPI-ELISA; similar to the other 2x GAGA probes; DPI-ELISA/qDPI-ELISA: 3 ug total E. coli protein extract and 2 pmol biotinylated dsDNA per well in buffered solution; salt, pH and temperature not stated (cited protocols); details: protein: recombinant; tags: GFP fusion; label: biotin on sense strand

B1: Kneg (dsDNA)
DNA 1: TAATGCAGCAAGTAAGACTACGACTGTTTC
DNA 2: GAAACAGTCGTAGTCTTACTTGCTGCATTA
GFP-BPC6 [1]
  binding result: no binding

B2: KNAT1/BP (dsDNA)
DNA 1: ATGAGGGCAAAGAGAGATGAGAGAAAATTTATACGTAC
DNA 2: GTACGTATAAATTTTCTCTCATCTCTCTTTGCCCTCAT
BPC1 [2]
  binding result: binds
GFP-BPC6 [3]
  binding result: binds

B3: K4 (dsDNA)
DNA 1: TAAAGGAGAAAGAAAGAGAAAGAGAGTTTC
DNA 2: GAAACTCTCTTTCTCTTTCTTTCTCCTTTA
BPC1-WARH
  binding result: no binding
BPC1-TIR
  binding signal: ~70 % of wild-type BPC1 signal

B4: BKn3 (dsDNA)
DNA 1: CCGCCATTAATTCATGAGAGAGAGAGAGAGACCAGAGATAA
DNA 2: TTATCTCTGGTCTCTCTCTCTCTCTCATGAATTAATGGCGG
BPC1 [4]
  binding signal: ~2 fold of K4 signal
GFP-BPC6 [5]
  binding signal: ~2.5 fold of KNAT1/BP fluorescence

B5: GAGA2 (dsDNA)
DNA 1: GGAGCAAGTAAGAGATGAAACGAGAGTTTC
DNA 2: GAAACTCTCGTTTCATCTCTTACTTGCTCC
GFP-BPC6 [6]
  binding result: binds

B6: K4mut7mut5 (dsDNA)
DNA 1: B3 DNA 1 with A9C, A13T, A21C
DNA 2: B3 DNA 2 with T10G, T18A, T22G
GFP-BPC6 [6]
  binding result: binds

B7: K12 (dsDNA)
DNA 1: AATTGGAAATATGGAGAGAGAAAACAAATC
DNA 2: GATTTGTTTTCTCTCTCCATATTTCCAATT
GFP-BPC6 [6]
  binding result: binds
